Results taken from paper PMC2150824 (The Journal of Cell Biology, 2001).

Tests used:
[1] = molecular target: F-actin (rabbit skeletal muscle actin) (rabbit, UniProt P68135 1-377); experiment: co-sedimentation
SEC = molecular target: the molecule itself; experiment: SEC

| Binder | binding result [1] | stoichiometry N (SEC) |
| --- | --- | --- |
| yeast coronin (natural protein) MSGKFVRASKYRHVFGQAAKKELQYEKLKVTNNAWDSNLLKTNGKFIAVNWNASGGGAFAVIPIEEVGKAPDQVPLFRGHTAQVLDTDFDPFNDHRIASGSDDSKIGIWDIPENYKFHDHVDEDGEPIDIKPVKFLTGHARKVGHVLYHPVAENVLASSSGDYTVKLWNVETGKDMITLKHPDMVTSMSFSYDGNYLATVARDKKLRVWNIREEKIVSEGPAHTGAKNQRVVWLGNSDRLATTGFSKLSDRQIGIWDAFNIEKGDLGGFYTVDQSSGILMPFYDEGNKILYLVGKGDGNIRYYEFQNDELFELSEFQSTEAQRGFAVAPKRMVNVKENEVLKGFKTVVDQRIEPVSFFVPRRSEEFQEDIYPDAPSNKPALTAEEWFSGKSVEGPILVSMRSIYDGSAPSFHEAKRPQQPTTQETALEEKKEQPKVEKPISESEKEVKQEAPKSPSPLKSASSSSTINHVLKEDNSINKLLKKSSDIDQVNNAEDPSRDTSGWEEADDEPAPIKIETPVTPTETKKDRTPKVEPSKELKPEPVSIATDRKQEQSLPQEEKSSEKTKSPEQEKSATPPSSITAAKTAITASSKEEPSAARTSPKSLGLKKSVEKLSTLVLQLEDVVDKLTKANLDKDERLLKLEQKIGELSK | binds | – |
| endogenous Hip1R stripped from CCVs with 0.5 M Tris-HCl (natural protein, UniProt Q9JKY5 1-1068, looked up) MNSIKNVPARVLSRRPGHSLEAEREQFDKTQAISISKAINSQEAPVKEKHARRIILGTHHEKGAFTFWSYAIGLPLSSSSILSWKFCHVLHKVLRDGHPNVLHDYQRYRSNIREIGDLWGHLRDQYGHLVNIYTKLLLTKISFHLKHPQFPAGLEVTDEVLEKAAGTDVNNIFQLTVEMFDYMDCELKLSESVFRQLNTAIAVSQMSSGQCRLAPLIQVIQDCSHLYHYTVKLMFKLHSCLPADTLQGHRDRFHEQFHSLKNFFRRASDMLYFKRLIQIPRLPEGPPNFLRASALAEHIKPVVVIPEEAPEEEEPENLIEISSAPPAGEPVVVADLFDQTFGPPNGSMKDDRDLQIENLKREVETLRAELEKIKMEAQRYISQLKGQVNGLEAELEEQRKQKQKALVDNEQLRHELAQLKALQLEGARNQGLREEAERKASATEARYSKLKEKHSELINTHAELLRKNADTAKQLTVTQQSQEEVARVKEQLAFQMEQAKRESEMKMEEQSDQLEKLKRELAARAGELARAQEALSRTEQSGSELSSRLDTLNAEKEALSGVVRQREAELLAAQSLVREKEEALSQEQQRSSQEKGELRGQLAEKESQEQGLRQKLLDEQLAVLRSAAAEAEAILQDAVSKLDDPLHLRCTSSPDYLVSRAQAALDSVSGLEQGHTQYLASSEDASALVAALTRFSHLAADTIVNGAATSHLAPTDPADRLMDTCRECGARALELVGQLQDQTVLPRAQPSLMRAPLQGILQLGQDLKPKSLDVRQEELGAMVDKEMAATSAAIEDAVRRIEDMMSQARHESSGVKLEVNERILNSCTDLMKAIRLLVMTSTSLQKEIVESGRGAATQQEFYAKNSRWTEGLISASKAVGWGATQLVESADKVVLHMGKYEELIVCSHEIAASTAQLVAASKVKANKNSPHLSRLQECSRTVNERAANVVASTKSGQEQIEDRDTMDFSGLSLIKLKKQEMETQVRVLELEKTLEAERVRLGELRKQHYVLAGGMGTPSEEEPSRPSPAPRSGATKKPPLAQKPSIAPRTDNQLDKKDGVYPAQLVNY | – | 2 |
